Source: patent publication US20240301086A1 (APTEVO RESEARCH AND DEVELOPMENT, published 2024)

What was measured:
[1] = biological target: T1, Full-length Human PSMA (TSC435), on cells (human, UniProt Q04609 1-750); experiment: flow cytometry on C4-2B cells, PE goat anti-human IgG Fc secondary, MFI (median)
T1 construct: also called CHOK1SV/huPSMA; PSMA on C4-2B, 22RV1, LNCaP, MDA-PCa-2b cells
Procedure: The PSMA-binding domain PSMA01023 was evaluated in several different structural formats, including an alternative Fc region with different mutations to eliminate effector function. The PSMA01023 binding domain was configured in scFv-Fc format in VL-VH (PSMA01036) and VH-VL (PSMA01037) orientations and in Fc-scFv format in VL-VH (PSMA01040) and VH-VL (PSMA01041) orientations. These molecules were evaluated for the impact of the orientation of the scFv domains (VH-VL versus VL-VH) and position on the Fc (N- vs. C-terminus) on binding to PSMA (+) tumor cells.
C4-2B and 22RV1 cells were labelled at approximately 100,000 cells per well, in 96-well plates, with serial dilutions of PSMA-binding constructs ranging from of 0.1 to 300 nM for 30 min on ice, followed by washes and incubation with PE-labeled minimum cross species reactive secondary antibody, goat anti-human IgG Fcγ, F(ab′)2 (Jackson Laboratory) for 30 minutes on ice. Washes and incubation were done in staining buffer (PBS with 0.2% BSA and 2 mM EDTA). Cells were collected using a BDM LSRII or a BD FACSymphony™ flow cytometer (BD Biosciences) and analyzed by FlowJo flow cytometry analysis software. Median fluorescence intensity (MFI) of bound molecules on cells was determined after exclusion of doublets. Graphs were plotted using GraphPad Prism 7®.

[2] = biological target: T1, Full-length Human PSMA (TSC435), on …; experiment: as above; remark: listed apart in the source
[3] = biological target: T2, human CD3ε in the TCR/CD3 complex on Jurkat cells (human, UniProt P07766 23-207); experiment: flow cytometry on Jurkat cells, PE goat anti-human IgG Fc secondary, MFI (median)
T2 construct: whole, on cells; On the cells it stands in the whole TCR/CD3 complex; also called CD3 (+) cells; CD3-expressing Jurkat cells
T2 sequence (P07766 23-207, one chain of several): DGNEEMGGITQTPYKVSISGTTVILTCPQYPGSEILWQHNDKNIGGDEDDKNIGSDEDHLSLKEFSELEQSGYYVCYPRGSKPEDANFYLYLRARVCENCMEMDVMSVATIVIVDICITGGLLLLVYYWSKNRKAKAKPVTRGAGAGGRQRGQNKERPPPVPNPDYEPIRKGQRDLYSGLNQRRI

T1 sequence (Q04609 whole entry): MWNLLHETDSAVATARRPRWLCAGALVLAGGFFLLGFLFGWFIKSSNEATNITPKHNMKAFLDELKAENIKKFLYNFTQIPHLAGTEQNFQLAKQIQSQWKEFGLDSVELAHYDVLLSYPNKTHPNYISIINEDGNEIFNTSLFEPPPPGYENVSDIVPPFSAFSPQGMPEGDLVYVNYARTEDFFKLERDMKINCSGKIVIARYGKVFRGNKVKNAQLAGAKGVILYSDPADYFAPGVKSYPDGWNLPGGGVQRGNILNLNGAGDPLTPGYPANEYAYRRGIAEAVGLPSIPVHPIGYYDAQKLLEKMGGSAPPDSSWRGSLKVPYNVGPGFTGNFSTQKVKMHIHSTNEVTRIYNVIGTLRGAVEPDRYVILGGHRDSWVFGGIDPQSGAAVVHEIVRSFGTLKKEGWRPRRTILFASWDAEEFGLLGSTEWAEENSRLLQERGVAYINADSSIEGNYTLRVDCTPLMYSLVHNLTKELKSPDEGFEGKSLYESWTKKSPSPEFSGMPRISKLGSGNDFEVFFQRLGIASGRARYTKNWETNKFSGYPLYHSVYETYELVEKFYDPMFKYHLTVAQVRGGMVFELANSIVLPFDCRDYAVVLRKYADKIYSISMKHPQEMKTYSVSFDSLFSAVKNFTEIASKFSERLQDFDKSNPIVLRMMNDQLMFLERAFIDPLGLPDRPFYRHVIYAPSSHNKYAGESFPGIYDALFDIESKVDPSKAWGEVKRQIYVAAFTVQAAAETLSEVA

B1: PSMA01036 Anti-PSMA scFv-Fc (Fc fusion)
chain: DIQMTQSPSTLSASVGDRVTITCRASKSISKYLAWYQQKPGKAPKLLIHSGSSLESGVPSRFSGSGSGTEFTLTISSLQPDDFATYYCQQHIEYPWTFGQGTKVEIKGGGGSGGGGSGGGGSGGGGSQVQLVQSGAEVKKPGASVKVSCKASGYTFTDYYMHWVRQAPGQGLEWMGYFNPYNDYTRYAQKFQGRVTMTRDTSTSTVYMELSSLRSEDTAVYYCARSDGYYDAMDYWGQGTTVTVSSSEPKSSDKTHTCPPCPAPPAAAPSVFLFPPKPKDTLMISRTPEVTCVVVDVSHEDPEVKFNWYVDGVEVHNAKTKPREEQYNSTYRVVSVLTVLHQDWLNGKEYKCAVSNKALPAPIEKTISKAKGQPREPQVYTLPPSRDELTKNQVSLTCLVKGFYPSDIAVEWESNGQPENNYKTTPPVLDSDGSFFLYSKLTVDKSRWQQGNVFSCSVMHEALHNHYTQKSLSLSPGK
binding result [1]: binds

B2: PSMA01072 Anti PSMA scFv x Anti CD3 scFv ADAPTIR (bispecific antibody)
chain: QVQLVQSGAEVKKPGASVKVSCKASGYTFTDYYMHWVRQAPGQGLEWMGYFNPYNDYTRYAQKFQGRVTMTRDTSTSTVYMELSSLRSEDTAVYYCARSDGYYDAMDYWGQGTTVTVSSGGGGSGGGGSGGGGSGGGGSDIQMTQSPSSLSASVGDRVTITCRASKSISKYLAWYQQKPGKAPKLLIHSGSSLESGVPSRFSGSGSGTEFTLTISSLQPDDFATYYCQQHIEYPWTFGQGTKVEIKEPKSSDKTHTCPPCPAPPAAAPSVFLFPPKPKDTLMISRTPEVTCVVVDVSHEDPEVKFNWYVDGVEVHNAKTKPREEQYNSTYRVVSVLTVLHQDWLNGKEYKCAVSNKALPAPIEKTISKAKGQPREPQVYTLPPSRDELTKNQVSLTCLVKGFYPSDIAVEWESNGQPENNYKTTPPVLDSDGSFFLYSKLTVDKSRWQQGNVFSCSVMHEALHNHYTQKSLSLSPGGGGSPSQVQLVQSGAEVKKPGASVKVSCKASGYTFTRSTMHWVRQAPGQGLEWIGYINPSSAYTNYAQKFQGRVTLTADKSTSTAYMELSSLRSEDTAVYYCASPQVHYDYNGFPYWGQGTLVTVSSGGGGSGGGGSGGGGSGGGGSDIQMTQSPSSLSASVGDRVTITCRASSSVSYMNWYQQKPGKAPKRWIYDSSKLASGVPSRFSGSGSGTDFTLTISSLQPEDFATYYCQQWSRNPPTFGQGTKVEIKRS
notes: also called PSMA1072
EC50 [2]: 1 nM
EC50 [3]: 1 nM

B3: PSMA01070 Anti PSMA scFv-Fc; Anti CD3 scFv-Fc (bispecific antibody)
chain 1: QVQLVQSGAEVKKPGASVKVSCKASGYTFTDYYMHWVRQAPGQGLEWMGYFNPYNDYTRYAQKFQGRVTMTRDTSTSTVYMELSSLRSEDTAVYYCARSDGYYDAMDYWGQGTTVTVSSGGGGSGGGGSGGGGSGGGGSDIQMTQSPSSLSASVGDRVTITCRASKSISKYLAWYQQKPGKAPKLLIHSGSSLESGVPSRFSGSGSGTEFTLTISSLQPDDFATYYCQQHIEYPWTFGQGTKVEIKEPKSSDKTHTCPPCPAPPAAAPSVFLFPPKPKDTLMISRTPEVTCVVVDVSHEDPEVKFNWYVDGVEVHNAKTKPREEQYNSTYRVVSVLTVLHQDWLNGKEYKCAVSNKALPAPIEKTISKAKGQPREPQVYTLPPSRDELTKNQVSLWCLVKGFYPSDIAVEWESNGQPENNYKTTPPVLDSDGSFFLYSKLTVDKSRWQQGNVFSCSVMHEALHNHYTQKSLSLSPG
chain 2: QVQLVQSGAEVKKPGASVKVSCKASGYTFTRSTMHWVRQAPGQGLEWIGYINPSSAYTNYAQKFQGRVTLTADKSTSTAYMELSSLRSEDTAVYYCASPQVHYDYNGFPYWGQGTLVTVSSGGGGSGGGGSGGGGSGGGGSDIQMTQSPSSLSASVGDRVTITCRASSSVSYMNWYQQKPGKAPKRWIYDSSKLASGVPSRFSGSGSGTDFTLTISSLQPEDFATYYCQQWSRNPPTFGQGTKVEIKEPKSSDKTHTCPPCPAPPAAAPSVFLFPPKPKDTLMISRTPEVTCVVVDVSHEDPEVKFNWYVDGVEVHNAKTKPREEQYNSTYRVVSVLTVLHQDWLNGKEYKCAVSNKALPAPIEKTISKAKGQPREPQVYTLPPSRDELTKNQVSLSCAVKGFYPSDIAVEWESNGQPENNYKTTPPVLDSDGSFFLVSKLTVDKSRWQQGNVFSCSVMHEALHNRFTQKSLSLSPG
EC50 [2]: 30 nM
EC50 [3]: 52 nM

B4: PSMA01086 Anti PSMA scFv x Fc; Anti PSMA scFv x Fc x linker x Anti CD3 scFv (bispecific antibody)
chain 1: QVQLVQSGAEVKKPGASVKVSCKASGYTFTDYYMHWVRQAPGQGLEWMGYFNPYNDYTRYAQKFQGRVTMTRDTSTSTVYMELSSLRSEDTAVYYCARSDGYYDAMDYWGQGTTVTVSSGGGGSGGGGSGGGGSGGGGSDIQMTQSPSSLSASVGDRVTITCRASKSISKYLAWYQQKPGKAPKLLIHSGSSLESGVPSRFSGSGSGTEFTLTISSLQPDDFATYYCQQHIEYPWTFGQGTKVEIKEPKSSDKTHTCPPCPAPPAAAPSVFLFPPKPKDTLMISRTPEVTCVVVDVSHEDPEVKFNWYVDGVEVHNAKTKPREEQYNSTYRVVSVLTVLHQDWLNGKEYKCAVSNKALPAPIEKTISKAKGQPREPQVYTLPPSRDELTKNQVSLWCLVKGFYPSDIAVEWESNGQPENNYKTTPPVLDSDGSFFLYSKLTVDKSRWQQGNVFSCSVMHEALHNHYTQKSLSLSPG
chain 2: QVQLVQSGAEVKKPGASVKVSCKASGYTFTDYYMHWVRQAPGQGLEWMGYFNPYNDYTRYAQKFQGRVTMTRDTSTSTVYMELSSLRSEDTAVYYCARSDGYYDAMDYWGQGTTVTVSSGGGGGGGGSGGGGSGGGGSDIQMTQSPSSLSASVGDRVTITCRASKSISKYLAWYQQKPGKAPKLLIHSGSSLESGVPSRFSGSGSGTEFTLTISSLQPDDFATYYCQQHIEYPWTFGQGTKVEIKEPKSSDKTHTCPPCPAPPAAAPSVFLFPPKPKDTLMISRTPEVTCVVVDVSHEDPEVKFNWYVDGVEVHNAKTKPREEQYNSTYRVVSVLTVLHQDWLNGKEYKCAVSNKALPAPIEKTISKAKGQPREPQVYTLPPSRDELTKNQVSLSCAVKGFYPSDIAVEWESNGQPENNYKTTPPVLDSDGSFFLVSKLTVDKSRWQQGNVFSCSVMHEALHNRFTQKSLSLSPGGGGSPSDIQMTQSPSSLSASVGDRVTITCRASSSVSYMNWYQQKPGKAPKRWIYDSSKLASGVPSRFSGSGSGTDFTLTISSLQPEDFATYYCQQWSRNPPTFGQGTKVEIKGGGGSGGGGSGGGGSGGGGSQVQLVQSGAEVKKPGASVKVSCKASGYTFTRSTMHWVRQAPGQGLEWIGYINPSSAYTNYAQKFQGRVTLTADKSTSTAYMELSSLRSEDTAVYYCASPQVHYDYNGFPYWGQGTLVTVSS
EC50 [2]: 1 nM
EC50 [3]: > 261 nM

B5: PSMA01037 Anti-PSMA scFv-Fc (Fc fusion)
chain: QVQLVQSGAEVKKPGASVKVSCKASGYTFTDYYMHWVRQAPGQGLEWMGYFNPYNDYTRYAQKFQGRVTMTRDTSTSTVYMELSSLRSEDTAVYYCARSDGYYDAMDYWGQGTTVTVSSGGGGSGGGGSGGGGSGGGGSDIQMTQSPSTLSASVGDRVTITCRASKSISKYLAWYQQKPGKAPKLLIHSGSSLESGVPSRFSGSGSGTEFTLTISSLQPDDFATYYCQQHIEYPWTFGQGTKVEIKSSSEPKSSDKTHTCPPCPAPPAAAPSVFLFPPKPKDTLMISRTPEVTCVVVDVSHEDPEVKFNWYVDGVEVHNAKTKPREEQYNSTYRVVSVLTVLHQDWLNGKEYKCAVSNKALPAPIEKTISKAKGQPREPQVYTLPPSRDELTKNQVSLTCLVKGFYPSDIAVEWESNGQPENNYKTTPPVLDSDGSFFLYSKLTVDKSRWQQGNVFSCSVMHEALHNHYTQKSLSLSPGK
notes: also called PSMA010137
binding result [1]: binds

B6: PSMA01040 Fc-linker anti PSMA scFv (Fc fusion)
chain: SSEPKSSDKTHTCPPCPAPPAAAPSVFLFPPKPKDTLMISRTPEVTCVVVDVSHEDPEVKFNWYVDGVEVHNAKTKPREEQYNSTYRVVSVLTVLHQDWLNGKEYKCAVSNKALPAPIEKTISKAKGQPREPQVYTLPPSRDELTKNQVSLTCLVKGFYPSDIAVEWESNGQPENNYKTTPPVLDSDGSFFLYSKLTVDKSRWQQGNVFSCSVMHEALHNHYTQKSLSLSPGGGGSPSDIQMTQSPSTLSASVGDRVTITCRASKSISKYLAWYQQKPGKAPKLLIHSGSSLESGVPSRFSGSGSGTEFTLTISSLQPDDFATYYCQQHIEYPWTFGQGTKVEIKGGGGSGGGGSGGGGSGGGGSQVQLVQSGAEVKKPGASVKVSCKASGYTFTDYYMHWVRQAPGQGLEWMGYFNPYNDYTRYAQKFQGRVTMTRDTSTSTVYMELSSLRSEDTAVYYCARSDGYYDAMDYWGQGTTVTVSSR
binding result [1]: binds

B7: PSMA01041 Fc-linker-anti PSMA scFv (Fc fusion)
chain: SSEPKSSDKTHTCPPCPAPPAAAPSVFLFPPKPKDTLMISRTPEVTCVVVDVSHEDPEVKFNWYVDGVEVHNAKTKPREEQYNSTYRVVSVLTVLHQDWLNGKEYKCAVSNKALPAPIEKTISKAKGQPREPQVYTLPPSRDELTKNQVSLTCLVKGFYPSDIAVEWESNGQPENNYKTTPPVLDSDGSFFLYSKLTVDKSRWQQGNVFSCSVMHEALHNHYTQKSLSLSPGGGGSPSQVQLVQSGAEVKKPGASVKVSCKASGYTFTDYYMHWVRQAPGQGLEWMGYFNPYNDYTRYAQKFQGRVTMTRDTSTSTVYMELSSLRSEDTAVYYCARSDGYYDAMDYWGQGTTVTVSSGGGGSGGGGSGGGGSGGGGSDIQMTQSPSTLSASVGDRVTITCRASKSISKYLAWYQQKPGKAPKLLIHSGSSLESGVPSRFSGSGSGTEFTLTISSLQPDDFATYYCQQHIEYPWTFGQGTKVEIKR
binding result [1]: binds
